Assay results: patent US20240415930A1, “COMPOSITIONS AND METHODS FOR ENHANCING BRAIN PERFUSION” (Washington University, priority 2021, published 2024)
Entries after “also recorded” stand apart in the source; their conditions may differ.

System: perivascular macrophages (PVMs)
Test: M-CSF treatment of aged mice: OVA tracer diffusion/coverage (CSF flow)
Assay type: in vivo
Method: FIG. 3U is a schematic diagram summarizing an experimental design to determine the effect of M-CSF treatment on CSF flow in aged mice.
FIG. 7D is a schematic diagram summarizing an experimental design wherein old mice were treated with M-CSF (or aCSF as a control group). Six hours after treatment, mice received OVA via ICM injection, and brains were harvested one hour after OVA diffusion.
First, it was observed that tracer diffusion in aged mice (24-month-old) was impaired compared to young/adult mice (3-month-old) (FIGS. 7A, 7B, 7C, 7D, 7E, and 7F).

B1: macrophage colony stimulating factor (protein, UniProt P07141 33-552, looked up)
Macrophage colony-stimulating …: KEVSEHCSHMIGNGHLKVLQQLIDSQMETSCQIAFEFVDQEQLDDPVCYLKKAFFLVQDIIDETMRFKDNTPNANATERLQELSNNLNSCFTKDYEEQNKACVRTFHETPLQLLEKIKNFFNETKNLLEKDWNIFTKNCNNSFAKCSSRDVVTKPDCNCLYPKATPSSDPASASPHQPPAPSMAPLAGLAWDDSQRTEGSSLLPSELPLRIEDPGSAKQRPPRSTCQTLESTEQPNHGDRLTEDSQPHPSAGGPVPGVEDILESSLGTNWVLEEASGEASEGFLTQEAKFSPSTPVGGSIQAETDRPRALSASPFPKSTEDQKPVDITDRPLTEVNPMRPIGQTQNNTPEKTDGTSTLREDHQEPGSPHIATPNPQRVSNSATPVAQLLLPKSHSWGIVLPLGELEGKRSTRDRRSPAELEGGSASEGAARPVARFNSIPLTDTGHVEQHEGSSDPQIPESVFHLLVPGIILVLLTVGGLLFYKWKWRSHRDPQTLDSSVGRPEDSSLTQDEDRQVELPV
B1 was tested, and the “OVA tracer diffusion/coverage through the brain” value (aged (24-month-old) mice, OVA ICM six hours after ICM M-CSF, brains harvested one hour later, vs aCSF) was “improved tracer diffusion through the brain tissue; also recorded: increase in OVA diffusion/coverage compared to aCSF-treated mice; also recorded: improved perfusion of the brains in older mice” and the “state of perivascular macrophages” value (older mice, ICM injection) was “rejuvenated the perivascular macrophages”.
